Assay results from US20030203372A1, “Analysis method” (priority 2000, published 2003).

Tested on: primary human cell cultures (11 cell types)
Experiment: Custom gene array, 11 human cell types in normoxia or hypoxia for 6 hr and 18 hr;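 as to mRNA expression level, #1 HY 18 hr: cell type #1 is adipocyte from subcutaneous adult adipose tissue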;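 as to mRNA expression level, #1 HY 6 hr: cell type #1 is adipocyte from subcutaneous adult adipose tissue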;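 as to mRNA expression level, #1 NO: cell type #1 is adipocyte from subcutaneous adult adipose tissue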;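 as to mRNA expression level, #2 HY 18 hr: cell type #2 is fetal cardiomyocyte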;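 as to mRNA expression level, #2 HY 6 hr: cell type #2 is fetal cardiomyocyte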;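 as to mRNA expression level, #2 NO: cell type #2 is fetal cardiomyocyte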;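 as to mRNA expression level, #3 HY 6 hr: cell type #3 is human umbilical vein endothelial cells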;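 as to mRNA expression level, #3 NO: cell type #3 is human umbilical vein endothelial cells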;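 as to mRNA expression level, #4 HY 18 hr: cell type #4 is adult dermal fibroblast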;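 as to mRNA expression level, #4 HY 6 hr: cell type #4 is adult dermal fibroblast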;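 as to mRNA expression level, #4 NO: cell type #4 is adult dermal fibroblast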;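 as to mRNA expression level, #6 HY 6 hr: cell type #6 is blood-derived macrophage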;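 as to mRNA expression level, #6 NO: cell type #6 is blood-derived macrophage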
Type: cell-based
Conditions: for mRNA expression level, #1 HY 6 hr: cell type #1, hypoxia 6 hr; for mRNA expression level, #1 HY 18 hr: cell type #1, hypoxia 18 hr; for mRNA expression level, #1 NO: cell type #1, normoxia; for mRNA expression level, #2 HY 6 hr: cell type #2, hypoxia 6 hr; for mRNA expression level, #2 HY 18 hr: cell type #2, hypoxia 18 hr; for mRNA expression level, #2 NO: cell type #2, normoxia; for mRNA expression level, #3 HY 6 hr: cell type #3, hypoxia 6 hr; for mRNA expression level, #3 HY 18 hr: cell type #3, hypoxia 18 hr; for mRNA expression level, #3 NO: cell type #3, normoxia; for mRNA expression level, #4 HY 6 hr: cell type #4, hypoxia 6 hr; for mRNA expression level, #4 HY 18 hr: cell type #4, hypoxia 18 hr; for mRNA expression level, #4 NO: cell type #4, normoxia; for mRNA expression level, #5 HY 6 hr: cell type #5, hypoxia 6 hr; for mRNA expression level, #5 NO: cell type #5, normoxia; for mRNA expression level, #6 HY 6 hr: cell type #6, hypoxia 6 hr; for #6 HY 18 hr (mRNA expression level): cell type #6, hypoxia 18 hr; for mRNA expression level, #6 NO: cell type #6, normoxia; for #7 HY 6 hr (mRNA expression level): cell type #7, hypoxia 6 hr; for #7 HY 18 hr (mRNA expression level): cell type #7, hypoxia 18 hr; for #7 NO (mRNA expression level): cell type #7, normoxia; for #8 HY 6 hr (mRNA expression level): cell type #8, hypoxia 6 hr; for #8 HY 18 hr (mRNA expression level): cell type #8, hypoxia 18 hr; for #8 NO (mRNA expression level): cell type #8, normoxia; for #9 HY 6 hr (mRNA expression level): cell type #9, hypoxia 6 hr; for #9 HY 18 hr (mRNA expression level): cell type #9, hypoxia 18 hr; for #9 NO (mRNA expression level): cell type #9, normoxia; for #10 HY 6 hr (mRNA expression level): cell type #10, hypoxia 6 hr; for #10 HY 18 hr (mRNA expression level): cell type #10, hypoxia 18 hr; for #10 NO (mRNA expression level): cell type #10, normoxia; for #11 HY 6 hr (mRNA expression level): cell type #11, hypoxia 6 hr; for #11 HY 18 hr (mRNA expression level): cell type #11, hypoxia 18 hr; for #11 NO (mRNA expression level): cell type #11, normoxia
Method: Equivalent cultures of non-immortalized, non-transformed primary human cells of 10 distinct types, were cultured in either normoxia or were exposed to hypoxia for 6 hr and 18 hr, and gene expression changes were determined. […] Moreover, unlike the vast majority of information in the public domain relating to genes responsive to hypoxia, all of these cells were human and were cultured without any modifications following isolation from the human donors.
A non-primary cell type (#9) was used to represent neurons, since primary human neurons are difficult to source. Therefore a total of 11 cell types are compared. It should be noted that RNA from hepatocytes at the […] timepoint of hypoxia was not available for this work.
Each RNA sample was hybridised to duplicate or triplicate arrays, to ensure reproducible data, and was analysed using GeneSpring software. Data from replicate arrays were merged during analysis to generate mean values. Data normalisation was achieved per-array using the aforementioned list of control genes, such that differences in RNA labelling or hybridization due to experimental variation were corrected by referencing each gene to the mean value of the reference genes on the same array. Also, for each gene, expression values were obtained which represent the value in each experimental condition (e.g. macrophages 6 hr hypoxia) as compared to the median of value of that gene throughout the full range of experimental conditions (i.e. from all cell types). […] This is common in microarray data analysis.

[1] = cell type #1, HY (hypoxia) 6 hr
[2] = cell type #1, HY (hypoxia) 18 hr
[3] = cell type #2, HY (hypoxia) 6 hr
[4] = cell type #2, HY (hypoxia) 18 hr
[5] = cell type #3, HY (hypoxia) 6 hr
[6] = cell type #3, HY (hypoxia) 18 hr
[7] = cell type #4, HY (hypoxia) 6 hr
[8] = cell type #4, HY (hypoxia) 18 hr
[9] = cell type #5, HY (hypoxia) 6 hr
[10] = cell type #6, HY (hypoxia) 6 hr
[11] = hypoxia/normoxia induction ratio, 18 hr monocyte

B1: p1G21 (nucleic acid, listed as Homo Sapiens)
DNA: TTTTACATACTAGATTTATTAAAGTGACCATAAGTGCCGAAGCGGTTTTCTAATGGAAAGCAGACTGGATTCACAACACAGAAGCAGAATTGGTGGAACAGGCTTTCGGGAACTTTCTTCCCCTGGTCACACGGCAGATCGGTCCCCAAGGACAGGTGCTCAGCCAGGACTTTTGCTTTAAGAAGGATTTGTCTNGAGAAAGGACTAGAGAGAAATCCAGCTCAGATGTATTGCTCATTCCTCTTCAGAAGGACTGGGTNGGAATGGAGCAGGGGCTAGAGGAATCTGGAAGCTAATTCTTTTAGGCTTTTTCCAACAGAGGGAAGCAGAGGGACTTCTGGGTCTTGAAGTTTGGAGCTTACGGAGGCGA
modifications: misc_feature 195, 260: n = A,T,C or G
DOWN, 6 hr macrophage
  HIGHEST FOLD CHANGE IN HYPOXIA (hr hypoxia + cell type): 1.85 DOWN (6 hr macrophage) ^ fold
[1]
  mRNA expression level: 1.01
[2]
  mRNA expression level: 0.55
Cell type #1, NO (normoxia)
  mRNA expression level: 0.99
[3]
  mRNA expression level: 1.48
[4]
  mRNA expression level: 1.10
Cell type #2, NO (normoxia)
  mRNA expression level: 2.02
[5]
  mRNA expression level: 1.13
[6]
  mRNA expression level: 0.80
Cell type #3, NO (normoxia)
  mRNA expression level: 1.54
[7]
  mRNA expression level: 0.65
[8]
  mRNA expression level: 0.60
Cell type #4, NO (normoxia)
  mRNA expression level: 0.78
[9]
  mRNA expression level: 1.35
Cell type #5, NO (normoxia)
  mRNA expression level: 0.72
[10]
  mRNA expression level: 0.69
Cell type #6, NO (normoxia)
  mRNA expression level: 1.28

B2: p1G22 (nucleic acid, listed as Homo Sapiens)
DNA: TTTTTTTTTGTTTCTGTTTTGTTTTTTCTTTTGCACTGATATATACCATACCAACATTGCAAGATGCAAAGTGTGGAAACTGGAGTTTAAATAAAATTACAAGGCAAAACTACCCCATCCCAAGTGCGGTTGCTGTACATATCTACAGTACAATTTTTGGAATGTATTGCCATTTAAGAACATAGAAACTTTCTACAGACAATTTCACATACAGAATACGTACACCTTTTAGAAAAAAAGGCAAATATTTATCTTACAGAGAGCATTGTATTTTACATTTGCCTGCACGTTTCTTTTTTCTGTTTCTTTTCTTTCTTTCTTTTTTTACATACTAGGATTTATTAAAGTGACCATAAGGTGCCCGANGCGGGTTTTCTAATGGGNAAGCAGACTGGGNTTCACCAACACAGGNGCAGGATTGGGTGGGACAGGCTTTCGGGGACCTTTCTTCCCCTGGGNCACACGGGCAGATCCGGTCCCCAAGGGCAGGNTGTTCAGCCNGGGGCTTTTNCTTTT
modifications: misc_feature 366, 384, 397, 412, 459, 491, 501, 511: n = A,T,C or G
DOWN, 18 hr mam epithelial
  HIGHEST FOLD CHANGE IN HYPOXIA (hr hypoxia + cell type): 2.38 DOWN (18 hr mam epithelial) ^ fold
[1]
  mRNA expression level: 0.78
[2]
  mRNA expression level: 0.72
Cell type #1, NO (normoxia)
  mRNA expression level: 1.14
[3]
  mRNA expression level: 2.67
[4]
  mRNA expression level: 1.41
Cell type #2, NO (normoxia)
  mRNA expression level: 2.75
[5]
  mRNA expression level: 12.7
[6]
  mRNA expression level: 8.79
Cell type #3, NO (normoxia)
  mRNA expression level: 8.35
[7]
  mRNA expression level: 1.21
[8]
  mRNA expression level: 1.01
Cell type #4, NO (normoxia)
  mRNA expression level: 1.35
[9]
  mRNA expression level: 0.70
Cell type #5, NO (normoxia)
  mRNA expression level: 0.59
[10]
  mRNA expression level: 0.63
Cell type #6, NO (normoxia)
  mRNA expression level: 0.77

B3: p1E9 (nucleic acid, listed as Homo Sapiens)
DNA: AGACCCCCCAGGGTGCCTCCGAGAGCTGCCTCACAGAGGACTCCGACCAGGGAGACCTTCCATCCTCCTCCACCTGTTCCACCCAGAGGACGCTGATTCCACCTCCTAAAACCTGCCTACTTCAGGACTTTAAGACTCACAGTCTTCAGCCTGTTAATGATGTCTTCATGTTGAGTTTTATAGCATGACTGTTGACCTTAAGATCCATTCTCATTGCTGATAATGCTGCAGCCCTGCTGGTTTGGGCTTGCTCGAAGATTTTATTAAGGCACGAAGAAGTGAAAAACTAAGGGCTTCATTCACCATCACCAAGTATATCGAACCATATACTTGTTTGCCAAAAGGGTGGAAGGACTTTAATTCGGAAATACTTTACCTCTTAATTTGGCCATATTCAGGAGGCCTAAAAGGATTGATCCNTAATGTTATTTCACCGTGGTTTTTATTGAATGG
modifications: misc_feature 420: n = A,T,C or G
  mRNA expression level, #1 HY 6 hr: 0.89
  mRNA expression level, #1 HY 18 hr: 1.48
  mRNA expression level, #1 NO: 1.54
  mRNA expression level, #2 HY 6 hr: 1.80
  mRNA expression level, #2 HY 18 hr: 1.53
  mRNA expression level, #2 NO: 1.18
  mRNA expression level, #3 HY 6 hr: 0.82
  mRNA expression level, #3 HY 18 hr: 0.60
  mRNA expression level, #3 NO: 0.68
  mRNA expression level, #4 HY 6 hr: 0.64
  mRNA expression level, #4 HY 18 hr: 0.73
  mRNA expression level, #4 NO: 0.60
  mRNA expression level, #5 HY 6 hr: 1.62
  mRNA expression level, #5 NO: 0.92
  mRNA expression level, #6 HY 6 hr: 3.97
  #6 HY 18 hr (mRNA expression level): 6.19
  mRNA expression level, #6 NO: 4.20
  #7 HY 6 hr (mRNA expression level): 0.42
  #7 HY 18 hr (mRNA expression level): 0.18
  #7 NO (mRNA expression level): 0.25
  #8 HY 6 hr (mRNA expression level): 3.63
  #8 HY 18 hr (mRNA expression level): 5.01
  #8 NO (mRNA expression level): 2.33
  #9 HY 6 hr (mRNA expression level): 0.80
  #9 HY 18 hr (mRNA expression level): 0.85
  #9 NO (mRNA expression level): 0.93
  #10 HY 6 hr (mRNA expression level): 0.61
  #10 HY 18 hr (mRNA expression level): 0.61
  #10 NO (mRNA expression level): 0.57
  #11 HY 6 hr (mRNA expression level): 1.37
  #11 HY 18 hr (mRNA expression level): 1.17
  #11 NO (mRNA expression level): 1.58
[11]
  HIGHEST FOLD CHANGE IN HYPOXIA (hr hypoxia + cell type): 2.15 (18 hr monocyte) fold

B4: p1F1 (nucleic acid, listed as Homo Sapiens)
DNA: TTTGTGTGGTCTTTTTTTTTTTTTCTCAGTGTTTTCAATTCCTCCTTGGTTGAATCCATGGATGCAAAACCCACAGATATGAAGGGCTGGCTATATATGCATTGATGATTGTCCTATTATATTAGTTATAAAGTGTCATTTAATATGTAGTGAAAGTTATGGTACAGTGGAAAGAGTAGTTGAAAACATAAACATTTGGGCCTTTCAAGAAAGGTAGCTTGGTGAAGTTTTTCACCTTCAAACTATGTCCCAGTCAGGG
  mRNA expression level, #1 HY 6 hr: 0.33
  mRNA expression level, #1 HY 18 hr: 0.52
  mRNA expression level, #1 NO: 0.58
  mRNA expression level, #2 HY 6 hr: 1.19
  mRNA expression level, #2 HY 18 hr: 1.14
  mRNA expression level, #2 NO: 1.42
  mRNA expression level, #3 HY 6 hr: 1.70
  mRNA expression level, #3 HY 18 hr: 1.49
  mRNA expression level, #3 NO: 1.64
  mRNA expression level, #4 HY 6 hr: 0.63
  mRNA expression level, #4 HY 18 hr: 0.54
  mRNA expression level, #4 NO: 0.95
  mRNA expression level, #5 HY 6 hr: 0.50
  mRNA expression level, #5 NO: 0.37
  mRNA expression level, #6 HY 6 hr: 0.61
  #6 HY 18 hr (mRNA expression level): 0.51
  mRNA expression level, #6 NO: 0.62
  #7 HY 6 hr (mRNA expression level): 0.90
  #7 HY 18 hr (mRNA expression level): 0.30
  #7 NO (mRNA expression level): 0.91
  #8 HY 6 hr (mRNA expression level): 0.53
  #8 HY 18 hr (mRNA expression level): 0.66
  #8 NO (mRNA expression level): 0.34
  #9 HY 6 hr (mRNA expression level): 1.23
  #9 HY 18 hr (mRNA expression level): 1.06
  #9 NO (mRNA expression level): 1.66
  #10 HY 6 hr (mRNA expression level): 1.58
  #10 HY 18 hr (mRNA expression level): 1.03
  #10 NO (mRNA expression level): 1.46
  #11 HY 6 hr (mRNA expression level): 1.24
  #11 HY 18 hr (mRNA expression level): 1.06
  #11 NO (mRNA expression level): 1.25
[11]
  HIGHEST FOLD CHANGE IN HYPOXIA (hr hypoxia + cell type): 1.96 (18 hr monocyte) fold
